Source: PMC12103653 (2025)

Biological target: Leukemia inhibitory factor (LIF), un-glycosylated recombinant protein (human, UniProt P15018 23-202)
Test: SPR

Sequence of Leukemia inhibitory factor (LIF), un-glycosylated recombinant protein (P15018 23-202): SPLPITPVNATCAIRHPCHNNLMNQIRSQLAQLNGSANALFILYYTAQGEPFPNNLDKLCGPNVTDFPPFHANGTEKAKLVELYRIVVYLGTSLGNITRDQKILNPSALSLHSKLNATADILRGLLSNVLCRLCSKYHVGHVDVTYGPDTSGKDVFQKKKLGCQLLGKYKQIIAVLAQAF

- Kd: 6.31 µM
B1: LIF receptor LIFR (receptor)
chain: QKKGAPHDLKCVTNNLQVWNCSWKAPSGTGRGTDYEVCIENRSRSCYQLEKTSIKIPALSHGDYEITINSLHDFGSSTSKFTLNEQNVSLIPDTPEILNLSADFSTSTLYLKWNDRGSVFPHRSNVIWEIKVLRKESMELVKLVTHNTTLNGKDTLHHWSWASDMPLECAIHFVEIRCYIDNLHFSGLEEWSDWSPVKNISWIPDSQTKVFPQDKVILVGSDITFCCVSQEKVLSALIGHTNCPLIHLDGENVAIKIRNISVSASSGTNVVFTTEDNIFGTVIFAGYPPDTPQQLNCETHDLKEIICSWNPGRVTALVGPRATSYTLVESFSGKYVRLKRAEAPTNESYQLLFQMLPNQEIYNFTLNAHNPLGRSQSTILVNITEKVYPHTPTSFKVKDINSTAVKLSWHLPGNFAKINFLCEIEIKKSNSVQEQRNVTIKGVENSSYLVALDKLNPYTLYTFRIRCSTETFWKWSKWSNKKQHLTTEASPSKGPDTWREWSSDGKNLIIYWKPLPINEANGKILSYNVSCSSDEETQSLSEIPDPQHKAEIRLDKNDYIISVVAKNSVGSSPPSKIASMEIPNDDLKIEQVVGMGKGILLTWHYDPNMTCDYVIKWCNSSRSEPCLMDWRKVPSNSTETVIESDEFRPGIRYNFFLYGCRNQGYQLLRSMIGYIEELAPIVAPNFTVEDTSADSILVKWEDIPVEELRGFLRGYLFYFGKGERDTSKMRVLESGRSDIKVKNITDISQKTLRIADLQGKTSYHLVLRAYTDGGVGPEKSMYVVTKENS
